Patent US12099068B2, “Biomarkers for graft-versus-host disease” (Incyte Corporation, priority 2018, dated 2024)

Tested on: plasma proteins
Test: Plasma proteins modulated between baseline and day 28 in responders (CR, VGPR, PR; n = 19), Example 6 (Table 13)
Assay type: in vivo, human
Details: plasma protein (OLINK NPX); responders (CR, VGPR, PR; n = 19); itacitinib 200 mg or 300 mg QD with corticosteroids; day 28 vs baseline
Method in brief: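 Plasma at baseline/screening and day 28 profiled for >1000 proteins by OLINK proximity extension assay, reported as NPX (log2). Steroid-naive and steroid-refractory patients pooled. Paired and unpaired t tests, ANOVA and Pearson correlation applied; significance at P<0.05.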

| Molecule | Fold Change, Decreased Expression from Baseline to Day 28 | Fold Change, Increased Expression from Baseline to Day 28 |
| --- | --- | --- |
| COMT (protein, UniProt P21964 1-271, looked up) Catechol O-methyltransferase: MPEAPPLLLAAVLLGLVLLVVLLLLLRHWGWGLCLIGWNEFILQPIHNLLMGDTKEQRILNHVLQHAEPGNAQSVLEAIDTYCEQKEWAMNVGDKKGKIVDAVIQEHQPSVLLELGAYCGYSAVRMARLLSPGARLITIEINPDCAAITQRMVDFAGVKDKVTLVVGASQDIIPQLKKKYDVDTLDMVFLDHWKDRYLPDTLLLEECGLLRKGTVLLADNVICPGAPDFLAHVRGSSCFECTHYQSFLEYREVVDGLEKAIYKGPGSEAGP | −1.4304 |  |
| CD69 (protein, UniProt Q07108 1-199, looked up) Early activation antigen CD69: MSSENCFVAENSSLHPESGQENDATSPHFSTRHEGSFQVPVLCAVMNVVFITILIIALIALSVGQYNCPGQYTFSMPSDSHVSSCSEDWVGYQRKCYFISTVKRSWTSAQNACSEHGATLAVIDSEKDMNFLKRYAGREEHWVGLKKEPGHPWKWSNGKEFNNWFNVTGSDKCVFLKNTEVSSMECEKNLYWICNKPYK | −1.7621 |  |
| SDC4 (protein, UniProt P31431 19-198, looked up) Syndecan-4: ESIRETEVIDPQDLLEGRYFSGALPDDEDVVGPGQESDDFELSGSGDLDDLEDSMIGPEVVHPLVPLDNHIPERAGSGSQVPTEPKKLEENEVIPKRISPVEESEDVSNKVSMSSTVQGSNIFERTEVLAALIVGGIVGILFAVFLILLLMYRMKKKDEGSYDLGKKPIYKKAPTNEFYA | −1.4678 |  |
| FR-gamma (protein, UniProt P41439 23-245, looked up) Folate receptor gamma: QPRSARARTDLLNVCMNAKHHKTQPSPEDELYGQCSPWKKNACCTASTSQELHKDTSRLYNFNWDHCGKMEPTCKRHFIQDSCLYECSPNLGPWIRQVNQSWRKERILNVPLCKEDCERWWEDCRTSYTCKSNWHKGWNWTSGINECPAGALCSTFESYFPTPAALCEGLWSHSFKVSNYSRGSGRCIQMWFDSAQGNPNEEVAKFYAAAMNAGAPSRGIIDS | −1.2115 |  |
| AZU1 (protein, UniProt P20160 27-248, looked up) Azurocidin: IVGGRKARPRQFPFLASIQNQGRHFCGGALIHARFVMTAASCFQSQNPGVSTVVLGAYDLRRRERQSRQTFSISSMSENGYDPQQNLNDLMLLQLDREANLTSSVTILPLPLQNATVEAGTRCQVAGWGSQRSGGRLSRFPRFVNVTVTPEDQCRPNNVCTGVLTRRGGICNGDGGTPLVCEGLAHGVASFSLGPCGRGPDFFTRVALFRDWIDGVLNNPGP | −2.0976 |  |
| ADAM 8 (protein, UniProt P78325 17-824, looked up) Disintegrin and …: IAPSRPWALMEQYEVVLPWRLPGPRVRRALPSHLGLHPERVSYVLGATGHNFTLHLRKNRDLLGSGYTETYTAANGSEVTEQPRGQDHCFYQGHVEGYPDSAASLSTCAGLRGFFQVGSDLHLIEPLDEGGEGGRHAVYQAEHLLQTAGTCGVSDDSLGSLLGPRTAAVFRPRPGDSLPSRETRYVELYVVVDNAEFQMLGSEAAVRHRVLEVVNHVDKLYQKLNFRVVLVGLEIWNSQDRFHVSPDPSVTLENLLTWQARQRTRRHLHDNVQLITGVDFTGTTVGFARVSAMCSHSSGAVNQDHSKNPVGVACTMAHEMGHNLGMDHDENVQGCRCQERFEAGRCIMAGSIGSSFPRMFSDCSQAYLESFLERPQSVCLANAPDLSHLVGGPVCGNLFVERGEQCDCGPPEDCRNRCCNSTTCQLAEGAQCAHGTCCQECKVKPAGELCRPKKDMCDLEEFCDGRHPECPEDAFQENGTPCSGGYCYNGACPTLAQQCQAFWGPGGQAAEESCFSYDILPGCKASRYRADMCGVLQCKGGQQPLGRAICIVDVCHALTTEDGTAYEPVPEGTRCGPEKVCWKGRCQDLHVYRSSNCSAQCHNHGVCNHKQECHCHAGWAPPHCAKLLTEVHAASGSLPVFVVVVLVLLAVVLVTLAGIIVYRKARSRILSRNVAPKTTMGRSNPLFHQAASRVPAKGGAPAPSRGPQELVPTTHPGQPARHPASSVALKRPPPAPPVTVSSPPFPVPVYTRQAPKQVIKPTFAPPVPPVKPGAGAANPGPAEGAVGPKVALKPPIQRKQGAGAPTAP | −1.3896 |  |
| WAS (protein, UniProt P42768 2-502, looked up) Actin nucleation-promoting …: SGGPMGGRPGGRGAPAVQQNIPSTLLQDHENQRLFEMLGRKCLTLATAVVQLYLALPPGAEHWTKEHCGAVCFVKDNPQKSYFIRLYGLQAGRLLWEQELYSQLVYSTPTPFFHTFAGDDCQAGLNFADEDEAQAFRALVQEKIQKRNQRQSGDRRQLPPPPTPANEERRGGLPPLPLHPGGDQGGPPVGPLSLGLATVDIQNPDITSSRYRGLPAPGPSPADKKRSGKKKISKADIGAPSGFKHVSHVGWDPQNGFDVNNLDPDLRSLFSRAGISEAQLTDAETSKLIYDFIEDQGGLEAVRQEMRRQEPLPPPPPPSRGGNQLPRPPIVGGNKGRSGPLPPVPLGIAPPPPTPRGPPPPGRGGPPPPPPPATGRSGPLPPPPPGAGGPPMPPPPPPPPPPPSSGNGPAPPPLPPALVPAGGLAPGGGRGALLDQIRQGIQLNKTPGAPESSALQPPPQSSEGLVGALMHVMQKRSRAIHSSDEGEDQAGDEDEDDEWDD | −2.133 |  |
| BID (protein, UniProt P55957 1-195, looked up) BH3-interacting domain death …: MDCEVNNGSSLRDECITNLLVFGFLQSCSDNSFRRELDALGHELPVLAPQWEGYDELQTDGNRSSHSRLGRIEADSESQEDIIRNIARHLAQVGDSMDRSIPPGLVNGLALQLRNTSRSEEDRNRDLATALEQLLQAYPRDMEKEKTMLVLALLLAKKVASHTPSLLRDVFHTTVNFINQNLRTYVRSLARNGMD | −1.382 |  |
| RETN (protein, UniProt Q9HD89 19-108, looked up) Resistin: KTLCSMEEAINERIQEVAGSLIFRAISSIGLECQSVTSRGDLATCPRGFAVTGCTCGSACGSWDVRAETTCHCQCAGMDWTGARCCRVQP | −1.8687 |  |
| RNASE3 (protein, UniProt P12724 28-160, looked up) Eosinophil cationic protein: RPPQFTRAQWFAIQHISLNPPRCTIAMRAINNYRWRCKNQNTFLRTTFANVVNVCGNQSIRCPHNRTLNNCHRSRFRVPLLHCDLINPGAQNISNCTYADRPGRRFYVVACDNRDPRDSPRYPVVPVHLDTTI | −2.6612 |  |
| PAR-1 (protein, UniProt P25116 42-425, looked up) Proteinase-activated receptor …: SFLLRNPNDKYEPFWEDEEKNESGLTEYRLVSINKSSPLQKQLPAFISEDASGYLTSSWLTLFVPSVYTGVFVVSLPLNIMAIVVFILKMKVKKPAVVYMLHLATADVLFVSVLPFKISYYFSGSDWQFGSELCRFVTAAFYCNMYASILLMTVISIDRFLAVVYPMQSLSWRTLGRASFTCLAIWALAIAGVVPLLLKEQTIQVPGLNITTCHDVLNETLLEGYYAYYFSAFSAVFFFVPLIISTVCYVSIIRCLSSSAVANRSKKSRALFLSAAVFCIFIICFGPTNVLLIAHYSFLSHTSTTEAAYFAYLLCVCVSSISCCIDPLIYYYASSECQRYVYSILCCKESSDPSSYNSSGQLMASKMDTCSSNLNNSIYKKLLT | −1.2074 |  |
| CCL25 (protein, UniProt O15444 24-150, looked up) C-C motif chemokine 25: QGVFEDCCLAYHYPIGWAVLRRAWTYRIQEVSGSCNLPAAIFYLPKRHRKVCGNPKSREVQRAMKLLDARNKVFAKLHHNTQTFQAGPHAVKKLSSGNSKLSSSKFSNPISSSKRNVSLLISANSGL |  | 2.106 |
| SH2D1A (protein, UniProt O60880 1-128, looked up) SH2 domain-containing protein …: MDAVAVYHGKISRETGEKLLLATGLDGSYLLRDSESVPGVYCLCVLYHGYIYTYRVSQTETGSWSAETAPGVHKRYFRKIKNLISAFQKPDQGIVIPLQYPVEKKSSARSTQGTTGIREDPDVCLKAP | −1.1574 |  |
| BCR (protein, UniProt P11274 1-1271, looked up) Breakpoint cluster region …: MVDPVGFAEAWKAQFPDSEPPRMELRSVGDIEQELERCKASIRRLEQEVNQERFRMIYLQTLLAKEKKSYDRQRWGFRRAAQAPDGASEPRASASRPQPAPADGADPPPAEEPEARPDGEGSPGKARPGTARRPGAAASGERDDRGPPASVAALRSNFERIRKGHGQPGADAEKPFYVNVEFHHERGLVKVNDKEVSDRISSLGSQAMQMERKKSQHGAGSSVGDASRPPYRGRSSESSCGVDGDYEDAELNPRFLKDNLIDANGGSRPPWPPLEYQPYQSIYVGGMMEGEGKGPLLRSQSTSEQEKRLTWPRRSYSPRSFEDCGGGYTPDCSSNENLTSSEEDFSSGQSSRVSPSPTTYRMFRDKSRSPSQNSQQSFDSSSPPTPQCHKRHRHCPVVVSEATIVGVRKTGQIWPNDGEGAFHGDADGSFGTPPGYGCAADRAEEQRRHQDGLPYIDDSPSSSPHLSSKGRGSRDALVSGALESTKASELDLEKGLEMRKWVLSGILASEETYLSHLEALLLPMKPLKAAATTSQPVLTSQQIETIFFKVPELYEIHKEFYDGLFPRVQQWSHQQRVGDLFQKLASQLGVYRAFVDNYGVAMEMAEKCCQANAQFAEISENLRARSNKDAKDPTTKNSLETLLYKPVDRVTRSTLVLHDLLKHTPASHPDHPLLQDALRISQNFLSSINEEITPRRQSMTVKKGEHRQLLKDSFMVELVEGARKLRHVFLFTDLLLCTKLKKQSGGKTQQYDCKWYIPLTDLSFQMVDELEAVPNIPLVPDEELDALKIKISQIKNDIQREKRANKGSKATERLKKKLSEQESLLLLMSPSMAFRVHSRNGKSYTFLISSDYERAEWRENIREQQKKCFRSFSLTSVELQMLTNSCVKLQTVHSIPLTINKEDDESPGLYGFLNVIVHSATGFKQSSNLYCTLEVDSFGYFVNKAKTRVYRDTAEPNWNEEFEIELEGSQTLRILCYEKCYNKTKIPKEDGESTDRLMGKGQVQLDPQALQDRDWQRTVIAMNGIEVKLSVKFNSREFSLKRMPSRKQTGVFGVKIAVVTKRERSKVPYIVRQCVEEIERRGMEEVGIYRVSGVATDIQALKAAFDVNNKDVSVMMSEMDVNAIAGTLKLYFRELPEPLFTDEFYPNFAEGIALSDPVAKESCMLNLLLSLPEANLLTFLFLLDHLKRVAEKEAVNKMSLHNLATVFGPTLLRPSEKESKLPANPSQPITMTDSWSLEVMSQVQVLLYFLQLEAIPAPDSKRQSILFSTEV | −1.8219 |  |
